Laboratory results published in patent CN111138528A.

Target: BDBV GP (BDBV)
Assay: ELISA, GP coated at 1 μg/mL, 5A8 from 10 μg/mL in 1:3 dilutions

B1: 单克隆抗体5A8 (antibody, V domains shown)
VH: EVQLLESGGGLVKPGGSLRLSCAASGFTFSDYYMNWIRQAPGKGLEWVSYISSSGKTIYYADSVKGRFTISRDNAKKSLYLQMNSLRAEDTAVYYCARDREIVISTTILLGSDHYAMDVWGQGTTVTVSS
VL: DIQMTQSPFTLSASVGDRVTITCRASQSINSYLNWYQQKPGKAPKLLIYSASSLQSGVPSRFSGSGSGTDFTLTISSLQPEDFAIYYCQQTYRTPYTFGQGTKVEIKT
EC50: 0.126 µg/mL
fold weaker binding than to EBOV GP: 10 fold
